Substitutions are numbered along the chain they refer to. Read-outs that look alike come from different tables or passages of the source.
Experiments:
Assay in all cases: ITC
TBK1 CTD(E696K) [1] = target: T1, TBK1 CTD(E696K) (human, UniProt Q9UHD2 677-729, E696K)
T1 sequence: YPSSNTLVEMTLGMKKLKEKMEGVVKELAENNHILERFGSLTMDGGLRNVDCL

TBK1 CTD V700Q [2] = target: T2, TBK1 CTD V700Q (human, UniProt Q9UHD2 677-729, V700Q)
T2 sequence: T1 sequence with K20E, V24Q

TBK1 CTD(E696K) [3] = target: T1, TBK1 CTD(E696K); remark: listed apart in the source
TBK1 CTD V700Q [4] = target: T2, TBK1 CTD V700Q; remark: listed apart in the source
OPTN(26–119) E50K [5] = target: T3, OPTN(26–119) E50K (human, UniProt Q96CV9 26-119, E50K)
Target sequence in this assay (Q96CV9 26-119 E50K): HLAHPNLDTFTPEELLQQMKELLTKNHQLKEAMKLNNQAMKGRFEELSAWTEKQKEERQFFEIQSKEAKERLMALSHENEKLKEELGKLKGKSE

OPTN(26–119) E50K [6] = target: T3, OPTN(26–119) E50K; remark: listed apart in the source

**Q.** With SSDNMQHAYWELKREMSNLHLVTQVQAELLRKLKTSTAIK (domain or fragment) [NAP1 TBD (residues 215–254)] as the binder, how does the Kd (TBK1 CTD(E696K) [1]) read?
**A.** The Kd was 660 nM.

**Q.** What about the Kd (TBK1 CTD V700Q [2]) of the same binder?
**A.** Its Kd is 6060 nM.

**Q.** What about the Kd (TBK1 CTD(E696K) [3]) of the same binder?
**A.** Its Kd is 660 nM.

**Q.** What about the Kd (TBK1 CTD V700Q [4]) of the same binder?
**A.** The Kd was 6060 nM.

B1: TBK1 CTD (residues 677–729) (domain or fragment)
chain: T1 sequence with K20E
**Q.** With B1 as the binder, how does the Kd (OPTN(26–119) E50K [5]) read?
**A.** The Kd was 100 nM.

**Q.** And the Kd (OPTN(26–119) E50K [6])?
**A.** Its Kd is 100 nM.
